Laboratory results published in article PMC8324831, “A synthetic nanobody targeting RBD protects hamsters from SARS-CoV-2 infection” (Nature Communications, 2021).
Positions count from the first letter of the chain named.

B1: SR34 (VHH)
VHH: QVQLVESGGGLVQAGGSLRLSCAAGGFPVKDHEMEWYRQAPGKEREWVAAITSSGWGTNTYYADSVKGRFTISRDNAKNTVYLQMNSLKPEDTAVYYCYVYVGSSYIGQGTQVTVS
B2: SR31 (VHH)
VHH: QVQLVESGGGLVQAGGSLRLSCAASGFPVWQGEMAWYRQAPGKEREWVAAISSMGYKTYYADSVKGRFTISRDNAKNTVYLQMNSLKPEDTAVYYCAVMVGFWYAGQGTQVTVS
B3: SR32 (VHH)
VHH: B2 VHH with W30N, Q31V, G32A, E33K, S52D, M54H, Y56A, K57Q, Y59H, M99H
B4: SR7 (VHH)
VHH: QVQLVESGGGLVQAGGSLRLSCAASGFPVWSNEMEWYRQAPGKEREWVAAITSYGTTEYADSVKGRFTISRDNAKNTVYLQMNSLKPEDTAVYYCYVYVGYSYIGQGTQVTVS
B5: SR44 (VHH)
VHH: QVQLVESGGGLVQAGGSLRLSCAASGFPVGTAQMAWYRQAPGKEREWVAAITSYGEYTLYADSVKGRFTISRDNAKNTVYLQMNSLKPEDTAVYYCAVHVGFWYTGQGTQVTVS
B6: SR6 (VHH)
VHH: QVQLVESGGGLVQAGGSLRLSCAASGFPVGQQEMTWYRQAPGKEREWVAAILSEGNGTEYADSVKGRFTISRDNAKNTVYLQMNSLKPEDTAVYYCAVYVGATYIGQGTQVTVS
B7: SR42 (VHH)
VHH: B6 VHH with G30Q, Q32R, L52M, E54K, N56V, G57H, A97H, T103S, I105F
B8: SR10 (VHH)
VHH: B6 VHH with G30N, Q31K, Q32R, L52T, N56R, G57S, A97Y, Y99F, A102S, T103S
B9: SR38 (VHH)
VHH: B6 VHH with G30N, Q32E, T35E, L52K, E54W, N56T, G57L, E59A, Y99H, A102Q
B10: SR14 (VHH)
VHH: QVQLVESGGGLVQAGGSLRLSCAASGFPVDSEEMTWYRQAPGKEREWVAAITSDGDITEYADSVKGRFTISRDNAKNTVYLQMNSLKPEDTAVYYCYVWVGRSYLGQGTQVTVS
B11: SR27 (VHH)
VHH: QVQLVESGGGLVQAGGSLRLSCAASGFPVWEAEMEWYRQAPGKEREWVAAISSIGTSTAYADSVKGRFTISRDNAKNTVYLQMNSLKPEDTAVYYCIVYVGKTYIGQGTQVTVS
B12: SR1 (VHH)
VHH: QVQLVESGGGLVQAGGSLRLSCAASGFPVAAYEMEWYRQAPGKEREWVAAINSMGDQTYYADSVKGRFTISRDNAKNTVYLQMNSLKPEDTAVYYCYVYVGFSYIGQGTQVTVS
B13: SR40 (VHH)
VHH: B12 VHH with A30D, A31S, Y32Q, N52S, M54N, D56K, Q57S, F102L
B14: SR17 (VHH)
VHH: B12 VHH with A30E, A31G, Y32S, N52E, M54N, D56T, Q57H, Y59H, F102A, S103G
B15: SR12 (VHH)
VHH: B12 VHH with A30N, A31M, Y32Q, N52S, M54T, D56W, Q57V, F102A
B16: SR20 (VHH)
VHH: B12 VHH with A30T, A31S, N52A, M54W, D56Y, Q57H, F102G
B17: SR28 (VHH)
VHH: B12 VHH with A30K, A31M, Y32A, N52Q, M54A, D56R, Q57E, F102A, S103G
B18: SR19 (VHH)
VHH: B12 VHH with A30N, A31T, Y32M, M54S, D56Q, Q57E, F102Q
B19: SR11 (VHH)
VHH: B12 VHH with A30Y, A31S, Y32M, N52S, M54W, D56N, Q57E, Y59H, F102A
B20: SR24 (VHH)
VHH: B6 VHH with G30N, Q31A, Q32M, L52M, N56T, G57W, A97Y, T103S
B21: SR41 (VHH)
VHH: B12 VHH with A30G, A31S, Y32T, N52S, M54T, D56H, Q57Y, Y59H, F102G, I105L
B22: SR37 (VHH)
VHH: B6 VHH with G30S, Q31T, Q32A, L52E, E54Y, G57S, A97Y, A102Y, T103S
B23: SR26 (VHH)
VHH: B12 VHH with A30N, A31T, Y32R, N52S, M54N, D56H, Q57K, F102R
B24: SR21 (VHH)
VHH: B12 VHH with A30S, A31K, Y32T, N52A, M54A, D56A, Q57E, F102Q
B25: SR22 (VHH)
VHH: B12 VHH with A31S, Y32H, N52A, M54S, D56Q, Q57W, F102Q
B26: SR43 (VHH)
VHH: B12 VHH with A30K, A31K, Y32H, N52Q, M54K, D56Y, Q57T, F102E
B27: SR16 (VHH)
VHH: B12 VHH with A30K, A31K, E35T, N52T, M54K, D56T, Q57Y, F102Y, I105L
B28: SR2 (VHH)
VHH: B6 VHH with G30K, L52E, E54N, N56H, A97Y, A102Q, T103S
B29: SR5 (VHH)
VHH: B12 VHH with S21R, A30E, A31T, Y32T, N52S, M54Y, D56S, Q57E, F102T, I105L
B30: SR25 (VHH)
VHH: B12 VHH with A30N, A31T, Y32A, E35V, N52Y, M54E, D56P, Q57I, Y59E, F102S
B31: SR23 (VHH)
VHH: B12 VHH with A30Y, A31T, Y32S, N52A, M54T, D56A, Q57E, Y59A, F102R
B32: SR36 (VHH)
VHH: B12 VHH with A30Y, A31M, Y32E, N52A, M54Y, D56S, Q57E, F102Q
B33: SR8 (VHH)
VHH: B12 VHH with A30Y, A31K, Y32R, E35T, N52S, M54K, D56V, Q57H, Y59E, F102K
B34: SR3 (VHH)
VHH: B12 VHH with A30W, A31Q, Y32E, N52T, M54Y, Q57T, Y97V, F102G, S103T
B35: SR9 (VHH)
VHH: B12 VHH with A30I, N52T, M54S, D56T, Q57S, F102Q, I105L
B36: SR33 (VHH)
VHH: B12 VHH with A30G, A31S, Y32N, N52Q, M54S, D56V, Q57F, F102G, I105L
B37: SR39 (VHH)
VHH: B12 VHH with A30D, Y32S, N52E, M54Q, D56Y, Q57E, F102S
B38: SR30 (VHH)
VHH: B12 VHH with A30R, A31K, Y32H, N52S, M54K, D56S, Q57N, F102A
B39: SR29 (VHH)
VHH: B6 VHH with G30S, Q32R, L52E, N56E, G57Q, A97Y, A102R, T103S
B40: SR13 (VHH)
VHH: B12 VHH with A30D, A31Y, Y32M, Y37F, N52T, M54N, D56R, Q57E, I70V, F102S
B41: SR18 (VHH)
VHH: B12 VHH with A30W, A31F, Y32Q, N52S, M54Q, D56T, Q57H, F102A, I105L
B42: SR15 (VHH)
VHH: B12 VHH with A30K, A31H, Y32A, N52S, M54N, D56S, Q57E, Y99W, F102Q
B43: SR35 (VHH)
VHH: QVQLVESGGGLVQAGGSLRLSCAASGFPVKHQTMEWYRQAPGKEREWVAAIMSKGRKTEYADSVKGRFTISRDNAKNTVYLQMNSLKPEDTAVYHCHVYVGATYFGQGTQVTVS

Target: SARS-CoV-2 S-RBD with Avi-tag and deca-His tag (residues 330-531) (SARS-CoV-2, UniProt P0DTC2, biotin on the Avi tag (BirA) where immobilised on streptavidin sensors or used in ELISA and FSEC)

| Binder | binding result |
| --- | --- |
| B1 | binds |
| B2 | binds |
| B3 | binds |
| B4 | binds |
| B5 | binds |
| B6 | binds |
| B7 | binds |
| B8 | binds |
| B9 | binds |
| B10 | binds |
| B11 | binds |
| B12 | binds |
| B13 | binds |
| B14 | binds |
| B15 | binds |
| B16 | binds |
| B17 | binds |
| B18 | binds |
| B19 | binds |
| B20 | binds |
| B21 | binds |
| B22 | binds |

| Binder | binding result |
| --- | --- |
| B23 | binds |
| B24 | binds |
| B25 | binds |
| B26 | binds |
| B27 | binds |
| B28 | binds |
| B29 | binds |
| B30 | binds |
| B31 | binds |
| B32 | binds |
| B33 | binds |
| B34 | binds |
| B35 | binds |
| B36 | binds |
| B37 | binds |
| B38 | binds |
| B39 | binds |
| B40 | binds |
| B41 | binds |
| B42 | binds |
| B43 | binds |
